Results reported in patent US20110269234.

Tested on: KDR-targeted ZFN pair (artificial)
Assay: cell_activity
Details: HeLa; up to about 25% with 30 C cold shock versus 1% at 37 C

Q: Which activity (% modified chromatids) does the source give for KDR locus target here?
A: 25
